Substitutions are numbered along the chain they refer to.
B1: 3A8 scFv-Fc (Fc fusion)
chain: QVQLQQSGAELVKPGASVKMSCKASGYTFTIYNIHWVRQTPGQGLEWIGLIYPDNGDTSYNQKFKAKATLTADKSSSTAYMQLSSLTSEDSAVYYCARGGFDYWGQGTSLTVSSGGGGSGGGGSGGGGSDIVMTQSQKFMSTSVGDRVSVTCKASQNVGTNVAWYQQKPGQSPKALIYSASYRYSGVPDRFTGSGSGTDFTLTISNVQAEDLADYFCQQHYSTPYTFGGGTKLEMKESKYGPPCPPCPAPEAAGGPSVFLFPPKPKDTLMISRTPEVTCVVVDVSQEDPEVQFNWYVDGVEVHNAKTKPREEQFNSTYRVVSVLTVLHQDWLNGKEYKCKVSNKGLPSSIEKTISKAKGQPREPQVYTLPPSQEEMTKNQVSLTCLVKGFYPSDIAVEWESNGQPENNYKTTPPVLDSDGSFFLYSKLTVDKSRWQEGNVFSCSVMHEALHNHYTQKSLSLSLG
B2: 3F10 scFv displayed on phage (scFv)
scFv: EVQLQQSGAELVKPGASVKMSCKASGYTFSFYNIHWVRQTPGQGLEWIGLIYPDNGDTSYNQKFKAKATLTADKSSSTAYMQLSSLTSEDSAVYYCARGGFDYWGQGTTLTVSSGGGGSGGGGSGGGGSDVLMTQSPASLSASVGETVTITCGASENIYGALNWYQRKQGKSPQLLIYGATNLADGMSSRFSGSGSGRQYSLKISSLHPDDVATYYCQNVLSTPYTFGGGTKLEIK
B3: 3A3 scFv displayed on phage (scFv)
scFv: QVQLQQSGAELVKPGASVKMSCKASGYTFTTYNIHWVRQTPGQGLEWIGLIYPDNGDTSYNQKFKAKATLTADKSSSTAYMHLSSLTSEDSAVYYCARGGFDYWGQGTTLTVSSGGGGSGGGGSGGGGSDIVMTQSHKFMSTSVGDRVSITCKASQDVNTDVSWYQQKPGQSPKLLIYSASYRYTGVPTRFTGSGSGTDFTFTISGVQAEDLADYYCQQHYNTPYTFGGGTRLEIK
B4: 3H6 scFv displayed on phage (scFv)
scFv: QVQLQQSGAELVKPGASVKMSCKASGYTFSFYNIHWVRQTPGQGLEWIGLIYPDNGDTSYNQKFKAKATLTADKSSSTAYMQLSSLTSEDSAVYYCARGGFDYWGQGTTLTVSSGGGGSGGGGSGGGGSDIQMTQSPASLSASVGETVTITCRASENIYSYLAWYQQKQGKSPQLLVYNAKTLAEGVPSRFSGSGSGTQFSLKINSLQPEDFGSYYCQHHYGTPYTFGGGTKLEMK
B5: 3E7 scFv displayed on phage (scFv)
scFv: QVQLQQSGAELVKPGASVKMSCKASGYTFTIYNIHWVRQTPGQGLEWIGLIYPDNGDTSYNQKFKAKATLTADKSSSTAYMQLSSLTSEDSAVYYCARGGFDYWGQGTTLTVSSGGGGSGGGGSGGGGSNIVMTQSQKFMSTSVGDRVSVTCKASQNVGTNVAWYQQKPGQSPKALIYSASYRYSGVPDRFTGSGSGTDFTLTISGVQAEDLADYYCQQHYNTPYTFGGGTKLEIK
B6: 3E1 scFv displayed on phage (scFv)
scFv: QVQLQQPGAEVVKPGASVKMSCKASGYTFTDYYIHWVKQTPGQGLEWIGAIYPDNGDTSYNQKFKVKATLTADKSSSTAYMQLSSLTSEDSAVYYCARAFTYWGQGTLVTVSAGGGGSGGGGSGGGGSDILITQSPASLSASVGETVTITCGASENIYGALNWYQRKQGKSPQLLIYGATNLADGMSSRFSGSGSGRQYSLKISSLHPDDVATYYCQNVLSTPYTFGGGTKLEIK
B7: 3E2 scFv displayed on phage (scFv)
scFv: EIQLQQSGAELVKPGASVKMSCKASGYTFSFYNMHWVKRTPGQGLEWIGLIYPDNGDTSYNQKFKGKATLTADTSSSTAYMQLSSLTSEDSAVYYCARGGLDYWGQGTSLTVSSGGGGSGGGGSGGGGSNIVMTQSQKFMSTSVGDRVSVTCKASQNVGTNVAWYQQKPGQSPKALIYSASYRYTGVPDRFTGSGSGTDFTFTISSVQAEDLAVYYCQQHYSTPYTFGGGTKLEIK
B8: 3F11 scFv displayed on phage (scFv)
scFv: QVQLQQSGAELVKPGASVKMSCKASGYTFAPYNIHWVRQTPGQGLEWIGLIYPDNGDTSYNQKFKAKATLTADKSSSTAYMQLSSLTSEDSAVYYCARGGFDYWGQGTSLTVSSGGGGSGGGGSGGGGSDIVMTQSQKFMSTSVGDRVSVTCKASQNVGTNVAWYQQKPGQSPKALIYSASYRYSGVPDRFTGSGSGTDFTLTISNVQSEDLAEYFCQQHYSTPFTFGSGTKLEIK
B9: 3A8 scFv displayed on phage (scFv)
scFv: B5 scFv with T109S, N130D, G206N, Y216F, N222S, I235M
B10: 3G10 scFv displayed on phage (scFv)
scFv: EVQLQQSGPELVKPGASVKMSCKASGYTFATYNMHWVKQTTGQGLEWIGAIYPDNGDTFYNRKFKDKATLTADKSSTTAYMQLSSLTSEDSAVYYCARGDFAYWGQGTLVTVSAGGGGSGGGGSGGGGSDVLMTQSPASLSASVGETVTITCGASENIYGALNWYQRKQGKSPQLLIYGATNLADGMSSRFSGSGSGRQYSLKISSLHPDDVATYYCQNVLSTPYTFGGGTKLEMK
B11: 2B1 scFv displayed on phage (scFv)
scFv: EVQLQQSGAELVKPGASVKMSCKASGYTFASYNLHWVKQTPGQGLEWIGLIYPENGDTSYNQKFKGKATLTADKSSSTAYIQLSSLTSEDSAVYFCARGGFDYWGQGTSLTVSSGGGGSGGGGSGGGGSDIQMIQSPASLSVSVGETVTITCRASENIYSNLAWYQQKQGKSPQLLVYNAKTLADGVPSRFSGSGSGTQYSLKINSLQPEDFGSYYCQHFWSTPYTFGGGTKLEIK
B12: 1G6 scFv displayed on phage (scFv)
scFv: EIQLQQSGAELVKPGASVKMSCKASGYTFRYYNMHWVKRTPGQGLEWIGLIYPDNGDTSYNQKFKGKATLTADTSSSTAYMQLSSLTSEDSAVYYCARGGLDYWGQGTSLTVSSGGGGSGGGGSGGGGSNIVMTQSHKFMSTSVGDRVSITCKASQDVNTDVAWYQQKPGQSPKLLIYSASYRYTGVPTRFTGSGSGTDFTFTISGVQAEDLADYYCQQHYNTPYTFGGGTKLELK
B13: 3F5 scFv displayed on phage (scFv)
scFv: EIQLQQSGAELVKPGASVKMSCKASGYTFRYYNMHWVKRTPGQGLEWIGLIYPDNGDTSYNQKFKGKATLTADTSSSTAYMQLSSLTSEDSAVYYCARGGLDYWGQGTTLTVSSGGGGSGGGGSGGGGSDIVLTQSPASLSASVGETVTITCGASENIYGALNWYQRKQGKSPQLLIYGATNLADGMSSRFSGSGSGRQYSLKISSLHPDDVATYYCQNVLSTPYTFGGGTKLEIK
B14: 3B4 scFv displayed on phage (scFv)
scFv: B13 scFv with I2V, E10D, R30S, K38R, V132Q, L133M, T134I, L140M, I235M
B15: 3D7 scFv displayed on phage (scFv)
scFv: QVQLQQSGAELVKPGASVKMSCKASGYTFSFYNMHWVKRTPGRGLEWIGLIYPDNGDTSYNQKFKGKATLTADTSSSTAYMQLSSLTSEDSAVYYCARGGLDYWGQGTSLTVSSGGGGSGGGGSGGGGSEIVLTQSPASLAVSLGQRATISCKASQSVDYDGDSYMNWYQQKPGQPPKLLIYGISNRFSGVPDRFSGSGSGTDFTLKISTIKPEDLGMYYCLQGTHQPYTFGGGTKLEIK
B16: 3E3 scFv displayed on phage (scFv)
scFv: QVQLQQPGAVLVKPGASVRMSCKASGYTFPYYNVHWVKRTPGQGLEWIGLIYPDNGDTSYNQKFTGKATLTADTSSSTAYMQLSSLTSEDSAVYYCARGGLDYWGQGTTLTVSAGGGGSGGGGSGGGGSDVQITQSPASLSASVGETVTITCGASENIYGALNWYQRKQGKSPQLLIYGATNLADGMSSRFSGSGSGRQYSLKISSLHPDDVATYYCQNVLSTPYTFGGGTKLEIK
B17: 2B2 scFv displayed on phage (scFv)
scFv: QLQLQQSGAELVKPGASVKMSCKASGYTFASYNLHWVKQTPGQGLEWIGLIYPENGDTSYNQKFKDKATLTADKSSTTAYIQLSSLASEDSAVYFCARGGFDYWGQGTTLTVSSGGGGSGGGGSGGGGSDIVMTQSQKFMSTSVGDRVSVTCKASQNVGTNVAWYQQKPGQSPKALIYSASYRYSGVPDRFTGSGSGTDYTLTISSVQAEDLALYYCQQHYSTPYTFGGGTKLELK
B18: 1D7 scFv displayed on phage (scFv)
scFv: QIQLQQSGAELVKPGASVKMSCKASGYTFRYYNMHWVKRTPGQGLEWIGLIYPDNGDTSYNQKFKGKATLTADTSSSTAYMQLSSLTSEDSAVYYCARGGLDYWGQGTSLTVSSGGGGSGGGGSGGGGSDIQMTQSPSSMSASLGDRITITCQATQDIVKNLNWYQQKPGKPPSFLIYYATELAEGVPSRFSGSGSGSDYSLTISNLESEDFADYYCLQFYEFPLTFGAGTKLELK
B19: 1B8 scFv displayed on phage (scFv)
scFv: QIQLQQSGAELVKPGASVKMSCKASGYTFASYNLHWVKQTPGQGLEWIGLIYPENGDTSYNQKFKGKATLTADTSSTTAYIQLSSLTSEDSAVYFCARGGFDYWGQGTSLTVSSGGGGSGGGGSGGGGSDIKMTQSPASLSASVGETVTITCGASENIYGALNWYQRKQGKSPQLLIYGATNLADGMSSRFSGSGSGRQYSLKISSLHPDDVATYYCQNVLSTPYTFGGGTKLEIK
B20: 1A3 scFv displayed on phage (scFv)
scFv: B19 scFv with I2V, S7P, T74K, T77S, S109T, S114Q, K132Q

target: recombinant mouse FGFR2b (mouse) (UniProt P21803); assay: BLI, antibody on AHC2 sensor
Sequence (P21803 22-377): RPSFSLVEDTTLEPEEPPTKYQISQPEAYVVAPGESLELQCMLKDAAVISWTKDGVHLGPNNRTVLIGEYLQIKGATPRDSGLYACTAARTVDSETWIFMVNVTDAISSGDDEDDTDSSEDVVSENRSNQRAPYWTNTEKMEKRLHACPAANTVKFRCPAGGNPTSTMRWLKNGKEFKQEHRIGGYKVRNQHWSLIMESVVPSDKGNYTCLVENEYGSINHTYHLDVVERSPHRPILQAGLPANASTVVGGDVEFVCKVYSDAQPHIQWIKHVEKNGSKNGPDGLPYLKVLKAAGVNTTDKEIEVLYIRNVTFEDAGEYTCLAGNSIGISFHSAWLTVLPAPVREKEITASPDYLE

Q: What does the source list for B1?
A: Kd: 7.17 nM; koff: 0.000306 s⁻¹; kon: 42700 M⁻¹ s⁻¹

target: extracellular domain of the FGFR2b protein (NP_075259.4) (UniProt P21802); assay: phage ELISA
Sequence (P21802 other isoform, or with tags, fused parts or gaps): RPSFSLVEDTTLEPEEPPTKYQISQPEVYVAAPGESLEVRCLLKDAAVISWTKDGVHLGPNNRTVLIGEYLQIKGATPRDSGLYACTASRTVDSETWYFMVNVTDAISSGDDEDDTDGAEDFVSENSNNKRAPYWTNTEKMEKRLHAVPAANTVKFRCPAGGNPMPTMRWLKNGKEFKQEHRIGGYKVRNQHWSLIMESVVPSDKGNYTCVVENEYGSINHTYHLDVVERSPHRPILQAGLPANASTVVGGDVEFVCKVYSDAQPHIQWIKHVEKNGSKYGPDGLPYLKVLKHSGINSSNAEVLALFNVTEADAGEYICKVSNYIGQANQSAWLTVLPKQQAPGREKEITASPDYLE

Q: For B2, which OD (450 nm) value is on record?
A: The OD (450 nm) value was 1.85.

Q: With B3 as the binder, how does the OD (450 nm) value read?
A: The OD (450 nm) value was 2.33.

Q: For B4, which OD (450 nm) value is on record?
A: Its OD (450 nm) value is 2.29.

Q: Which OD (450 nm) value does the source give for B5 here?
A: Its OD (450 nm) value is 1.88.

Q: With B6 as the binder, how does the OD (450 nm) value read?
A: Its OD (450 nm) value is 2.17.

Q: Which OD (450 nm) value does the source give for B7 here?
A: The OD (450 nm) value was 1.87.

Q: B8 was tested. Which OD (450 nm) value did it give?
A: The OD (450 nm) value was 2.

Q: How did the OD (450 nm) value turn out when B9 was run?
A: Its OD (450 nm) value is 2.22.

Q: How did the OD (450 nm) value turn out when B10 was run?
A: The OD (450 nm) value was 1.95.

Q: How did the OD (450 nm) value turn out when B11 was run?
A: Its OD (450 nm) value is 2.33.

Q: How did the OD (450 nm) value turn out when B12 was run?
A: The OD (450 nm) value was 2.44.

Q: With B13 as the binder, how does the OD (450 nm) value read?
A: The OD (450 nm) value was 1.94.

Q: With B14 as the binder, how does the OD (450 nm) value read?
A: The OD (450 nm) value was 2.47.

Q: For B15, which OD (450 nm) value is on record?
A: The OD (450 nm) value was 2.2.

Q: Which OD (450 nm) value does the source give for B16 here?
A: The OD (450 nm) value was 2.28.

Q: B17 was tested. Which OD (450 nm) value did it give?
A: The OD (450 nm) value was 2.38.

Q: How did the OD (450 nm) value turn out when B18 was run?
A: Its OD (450 nm) value is 2.14.

Q: How did the OD (450 nm) value turn out when B19 was run?
A: The OD (450 nm) value was 2.65.

Q: With B20 as the binder, how does the OD (450 nm) value read?
A: Its OD (450 nm) value is 2.67.

From EP4714976A1
